“And” between values parts separate entries of the source, which are not always exact repeats. Equal entries are not always repeated.
T1: human NPRA (human, UniProt P16066 33-1061)
T1 sequence (looked up): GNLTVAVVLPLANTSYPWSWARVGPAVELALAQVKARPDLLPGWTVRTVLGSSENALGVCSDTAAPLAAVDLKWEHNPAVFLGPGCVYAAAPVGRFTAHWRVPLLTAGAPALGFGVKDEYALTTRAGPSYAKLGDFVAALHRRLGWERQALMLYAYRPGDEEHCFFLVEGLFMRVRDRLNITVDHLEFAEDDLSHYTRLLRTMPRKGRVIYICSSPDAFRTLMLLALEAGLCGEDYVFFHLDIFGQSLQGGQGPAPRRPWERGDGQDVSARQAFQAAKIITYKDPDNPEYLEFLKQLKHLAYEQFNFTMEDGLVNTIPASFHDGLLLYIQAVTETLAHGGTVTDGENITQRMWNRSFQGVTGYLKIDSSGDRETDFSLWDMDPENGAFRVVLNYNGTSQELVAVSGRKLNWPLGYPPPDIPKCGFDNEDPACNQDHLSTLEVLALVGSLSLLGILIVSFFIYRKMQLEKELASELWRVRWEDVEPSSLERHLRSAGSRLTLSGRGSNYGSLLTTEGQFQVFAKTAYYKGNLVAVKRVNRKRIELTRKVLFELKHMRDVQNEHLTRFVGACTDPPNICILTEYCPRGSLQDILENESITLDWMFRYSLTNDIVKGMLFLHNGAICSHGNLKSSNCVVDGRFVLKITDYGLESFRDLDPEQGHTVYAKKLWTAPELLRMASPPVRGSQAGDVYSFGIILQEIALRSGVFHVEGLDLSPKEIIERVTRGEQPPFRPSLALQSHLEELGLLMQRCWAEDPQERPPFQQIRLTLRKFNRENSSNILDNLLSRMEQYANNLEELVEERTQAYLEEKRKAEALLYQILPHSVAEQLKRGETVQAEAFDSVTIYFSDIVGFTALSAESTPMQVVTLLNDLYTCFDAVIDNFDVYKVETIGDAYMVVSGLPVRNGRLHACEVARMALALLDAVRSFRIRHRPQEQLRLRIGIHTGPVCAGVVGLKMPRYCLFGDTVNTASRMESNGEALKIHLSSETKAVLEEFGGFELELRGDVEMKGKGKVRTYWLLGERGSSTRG


Biological target: T1, human NPRA
Test: cell-based or functional assay

| activity rcs [%] | average rel logEC50 [log vs TPP-5661] | rel. logEC50* pcs | rel. logEC50 pcs 4 [log vs TPP-5661] | rel. logEC50 pcs 7 [log vs TPP-5661] | rel. activity rcs [log vs TPP-5661] | rel. logEC50 pcs 5 [log vs TPP-5661] | rel. logEC50 pcs 6 [log vs TPP-5661] | rel. logEC50 pcs 1 [log vs TPP-5661] | rel. logEC50 pcs 2 [log vs TPP-5661] | Binder |
| --- | --- | --- | --- | --- | --- | --- | --- | --- | --- | --- |
| 41 | -0.3 | -0.5 log vs TPP-5661 and -0.6 log vs TPP-5661 and -0.4 log vs TPP-5661 | -0.2 | 0 | – | – | – | – | – | TPP-10294 (antibody, human IgG1, lambda) heavy: not shown light: QSVLTQPPSVSGAPGQRVTISCTGSSSNIGAGYDVHWYQQLPGTAPKLLIYGNSNRPSGVPDRFSGSKSGTSASLAITGLQAEDEADYYCQSYDSSLSGVVFGGGTKLTVLGQPKAAPSVTLFPPSSEELQANKATLVCLISDFYPGAVTVAWKADSSPVKAGVETTTPSKQSNNKYAASSYLSLTPEQWKSHRSYSCQVTHEGSTVEKTVAPTECS |
| – | -0.7 | -0.6 log vs TPP-5661 and -0.8 log vs TPP-5661 | – | – | – | – | – | – | – | TPP-13061 (antibody, human IgG1, lambda) heavy: not shown light: QSVLTQPPSVSGAPGQRVTISCTGSSSNIGAGYDVHWYQQLPGTAPKLLIYGNSNRPSGVPDRFSGSKSGTSASLAITGLQAEDEADYYCQSYDSSLSGVVFGGGTKLTVLGQPKAAPSVTLFPPSSEELQANKATLVCLISDFYPGAVTVAWKADSSPVKAGVETTTPSKQSNNKYAASSYLSLTPEQWKSHRSYSCQVTHEGSTVEKTVAPTECS |
| 72 | -0.4 | – | – | 0.2 | -0.9 | -0.9 | -0.4 | – | – | TPP-10765 (antibody, human IgG1, lambda) heavy: not shown light: QSVLTQPPSVSGAPGQRVTISCTGSSSNIGAGYDVHWYQQLPGTAPKLLIYGNSNRPSGVPDRFSGSKSGTSASLAITGLQAEDEADYYCQSYDSSLSGVVFGGGTKLTVLGQPKAAPSVTLFPPSSEELQANKATLVCLISDFYPGAVTVAWKADSSPVKAGVETTTPSKQSNNKYAASSYLSLTPEQWKSHRSYSCQVTHEGSTVEKTVAPTECS |
| – | -0.5 | – | – | – | – | 0 | -0.9 | – | – | TPP-10847 (antibody, human IgG1, lambda) heavy: not shown light: QSVLTQPPSVSGAPGQRVTISCTGSSSNIGAGYDVHWYQQLPGTAPKLLIYGNSNRPSGVPDRFSGSKSGTSASLAITGLQAEDEADYYCQSYDSSLSGVVFGGGTKLTVLGQPKAAPSVTLFPPSSEELQANKATLVCLISDFYPGAVTVAWKADSSPVKAGVETTTPSKQSNNKYAASSYLSLTPEQWKSHRSYSCQVTHEGSTVEKTVAPTECS |
| 67 | -0.6 | – | – | – | – | -0.4 | -0.8 | – | – | TPP-10845 (antibody, human IgG1, lambda) heavy: not shown light: QSVLTQPPSVSGAPGQRVTISCTGSSSNIGAGYDVHWYQQLPGTAPKLLIYGNSNRPSGVPDRFSGSKSGTSASLAITGLQAEDEADYYCQSYDSSLSGVVFGGGTKLTVLGQPKAAPSVTLFPPSSEELQANKATLVCLISDFYPGAVTVAWKADSSPVKAGVETTTPSKQSNNKYAASSYLSLTPEQWKSHRSYSCQVTHEGSTVEKTVAPTECS |
| 30 | 0.1 | – | 0.1 | – | 0.3 | 0.2 | – | 0.3 | -0.2 | TPP-10282 (antibody, human IgG1, lambda) heavy: not shown light: QSVLTQPPSVSGAPGQRVTISCTGSSSNIGAGYDVHWYQQLPGTAPKLLIYGNSNRPSGVPDRFSGSKSGTSASLAITGLQAEDEADYYCQSYDSSLSGVVFGGGTKLTVLGQPKAAPSVTLFPPSSEELQANKATLVCLISDFYPGAVTVAWKADSSPVKAGVETTTPSKQSNNKYAASSYLSLTPEQWKSHRSYSCQVTHEGSTVEKTVAPTECS |
| 83 | -0.8 | – | – | – | -0.8 | -0.8 | – | – | – | TPP-10283 (antibody, human IgG1, lambda) heavy: not shown light: QSVLTQPPSVSGAPGQRVTISCTGSSSNIGAGYDVHWYQQLPGTAPKLLIYGNSNRPSGVPDRFSGSKSGTSASLAITGLQAEDEADYYCQSYDSSLSGVVFGGGTKLTVLGQPKAAPSVTLFPPSSEELQANKATLVCLISDFYPGAVTVAWKADSSPVKAGVETTTPSKQSNNKYAASSYLSLTPEQWKSHRSYSCQVTHEGSTVEKTVAPTECS |

— patent publication US20210147504A1 (Bayer, published 2021)
